How the values were obtained:
HA-TAK1 = target: T1, HA-TAK1 (UniProt Q62073 1-579, limits assumed); test: coimmunoprecipitation from transfected 293 cells: IP anti-T7, immunoblot anti-HA
T1 construct: I recall the cited Yamaguchi 1995 clone as mouse TAK1 (Q62073); human TAK1 is O43318; also called HA-tagged TAK1 protein
T1 sequence (looked up): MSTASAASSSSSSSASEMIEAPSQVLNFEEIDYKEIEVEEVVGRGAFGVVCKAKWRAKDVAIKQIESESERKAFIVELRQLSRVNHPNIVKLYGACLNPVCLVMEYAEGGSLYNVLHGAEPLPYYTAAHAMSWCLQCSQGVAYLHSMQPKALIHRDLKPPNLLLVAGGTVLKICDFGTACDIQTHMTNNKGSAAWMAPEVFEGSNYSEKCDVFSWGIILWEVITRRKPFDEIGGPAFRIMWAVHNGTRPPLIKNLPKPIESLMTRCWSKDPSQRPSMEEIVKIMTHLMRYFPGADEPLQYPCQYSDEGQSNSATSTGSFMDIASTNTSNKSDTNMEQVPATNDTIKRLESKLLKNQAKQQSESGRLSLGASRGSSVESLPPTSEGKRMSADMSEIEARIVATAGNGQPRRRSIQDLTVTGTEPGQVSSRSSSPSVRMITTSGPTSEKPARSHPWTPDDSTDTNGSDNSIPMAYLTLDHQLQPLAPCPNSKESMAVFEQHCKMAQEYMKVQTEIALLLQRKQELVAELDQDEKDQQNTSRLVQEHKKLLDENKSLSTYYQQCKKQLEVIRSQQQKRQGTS
Description: 293 cells were transiently transfected with an expression vector for HA-TAK1 in combination with empty vector (−) or with expression vectors for T7-TAB2-Full length (Full), T7-TAB2C (C), or T7-TAB2N (N) as indicated. Cell extracts were immunoprecipitated (IP) with anti-T7 (7) or mouse IgG (C). Coprecipitated HA-TAK1 was detected by immunoblotting (IB) with anti-HA (upper panel, left). The amounts of immunoprecipitated T7-TAB2 proteins were determined with anti-T7 (lower panel). Whole cell extracts were immunoblotted with anti-HA to determine total amounts of HA-TAK1 (upper panel, right). Schematic representation of various TAB2 constructs is shown in the lower part. The coiled-coil regions are indicated by solid boxes.

Flag-TRAF6 = target: T2, Flag-TRAF6 (UniProt Q9Y4K3 1-522); test: coimmunoprecipitation from transfected 293 cells: IP anti-T7, immunoblot anti-Flag
T2 construct: The anti-TRAF6C peptide covers amino acids 497 to 522, which fits the 522-residue human protein; also called Flag-tagged TRAF6; 2Flag-TRAF6
T2 sequence (looked up): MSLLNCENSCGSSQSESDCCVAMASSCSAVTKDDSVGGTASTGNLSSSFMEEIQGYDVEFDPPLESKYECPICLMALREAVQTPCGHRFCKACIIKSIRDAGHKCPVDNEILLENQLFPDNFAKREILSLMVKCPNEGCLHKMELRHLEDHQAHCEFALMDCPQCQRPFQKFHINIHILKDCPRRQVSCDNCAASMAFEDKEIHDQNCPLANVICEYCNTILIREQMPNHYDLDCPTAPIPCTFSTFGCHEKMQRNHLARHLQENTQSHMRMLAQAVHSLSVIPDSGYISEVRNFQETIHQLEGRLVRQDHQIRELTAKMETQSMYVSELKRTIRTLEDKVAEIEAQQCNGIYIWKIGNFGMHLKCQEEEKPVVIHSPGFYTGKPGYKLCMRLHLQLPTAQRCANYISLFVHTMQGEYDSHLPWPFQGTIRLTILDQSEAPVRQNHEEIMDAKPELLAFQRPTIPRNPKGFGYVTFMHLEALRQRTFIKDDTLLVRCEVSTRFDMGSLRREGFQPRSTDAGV
Description: (A) show an association of TAB2 with […] in mammalian cells. 293 cells were transiently transfected with an expression vector for 2Flag-TRAF6 in combination with empty vector (−) or with expression vectors for T7-TAB2-Full length (Full) (Full), T7-TAB2C (C), or T7-TAB2N (N) as indicated. Cell extracts were immunoprecipitated (IP) with anti-T7 (7) or mouse IgG (C). Coprecipitated Flag-TRAF6 was detected by immunoblotting (IB) with anti-Flag (upper panel, left). The amounts of immunoprecipitated T7-TAB2 proteins were determined with anti-T7 (lower panel). Whole cell extracts were immunoblotted with anti-Flag to determine total amounts of Flag-TRAF6 (upper panel, right).
The present inventors therefore determined whether TAB2 could interact with TRAF6 (FIG. 3A). T7-TAB2 was coexpressed with Flag-tagged TRAF6 in 293 cells and immunoprecipitated with anti-T7 antibody. The immune complexes were subjected to immunoblotting with a monoclonal antibody to Flag. TAB2 efficiently precipitated with TRAF6 (lane 4). To determine which domain of TAB2 is responsible for its TRAF6 association, the inventors tested whether TAB2N or TAB2C is able to bind to TRAF6, using the same experimental procedure. […] Thus, the C-terminal domain of TAB2 is required for TRAF6 binding.

B1: T7-TAB2N (other)
chain: MASMTGGQQMGMAQGSHQIDFQVLHDLRQKFPEVPEVVVSRCMLQNNNNLDACCAVLSQESTRYLYGEGDLNFSDDSGISGLRNHMTSLNLDLQSQNIYHHGREGSRMNGSRTLTHSISDGQLQGGQSNSELFQQEPQTAPAQVPQGFNVFGMSSSSGASNSAPHLGFHLGSKGTSSLSQQTPRFNPIMVTLAPNIQTGRNTPTSLHIHGVPPPVLNSPQGNSIYIRPYITTPGGTTRQTQQHSGWVSQFNPMNPQQVYQPSQPGPWTTCPASNPLSHTSSQQPNQQGHQTSHVYMPISSPTTSQPPTIHSSGSSQSSAHSQYNIQNISTGPRKNQIEIKLEPPQRNNSSKLRSSGPRTSSTSSSVNSQTLNRNQPTVYIAASPPNTDELMSRSQPKVYISANAATGDEQV
notes: Expressed in 293 cells; also called N (1-400)
binding result (HA-TAK1): no binding
binding result (Flag-TRAF6): no binding
